17 molecules from US20110053865A1 (Ablynx, published 2011) can be followed below.

Several values for one entry are separate records, joined by “and”; a condition that tells them apart may be missing. Identical values can stand only once.

The chains are these.
T1: recombinant human IL-23 (p19/p40) (human, UniProt Q9NPF7 20-189; P29460 23-328)
T1 construct: Bought heterodimer (R&D Systems or eBioscience); biotinylated in the alpha-screens; also called hIL-23
T1 sequence (looked up) 1: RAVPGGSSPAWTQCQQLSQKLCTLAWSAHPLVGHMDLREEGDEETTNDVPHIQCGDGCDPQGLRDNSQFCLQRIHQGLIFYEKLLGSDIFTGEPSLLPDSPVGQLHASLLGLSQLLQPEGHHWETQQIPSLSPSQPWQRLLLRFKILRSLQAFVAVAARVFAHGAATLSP
T1 sequence (looked up) 2: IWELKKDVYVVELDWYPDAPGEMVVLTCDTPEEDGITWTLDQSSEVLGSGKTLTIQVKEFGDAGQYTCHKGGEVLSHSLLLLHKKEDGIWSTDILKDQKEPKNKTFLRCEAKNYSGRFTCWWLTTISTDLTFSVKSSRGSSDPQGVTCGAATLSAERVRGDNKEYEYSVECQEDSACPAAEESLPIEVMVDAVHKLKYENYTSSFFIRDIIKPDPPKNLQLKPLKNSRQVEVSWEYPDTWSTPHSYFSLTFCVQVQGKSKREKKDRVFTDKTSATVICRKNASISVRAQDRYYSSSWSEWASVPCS

T2: recombinant human IL-12 (human, UniProt P29459 23-219; P29460 23-328)
T2 sequence (looked up) 1: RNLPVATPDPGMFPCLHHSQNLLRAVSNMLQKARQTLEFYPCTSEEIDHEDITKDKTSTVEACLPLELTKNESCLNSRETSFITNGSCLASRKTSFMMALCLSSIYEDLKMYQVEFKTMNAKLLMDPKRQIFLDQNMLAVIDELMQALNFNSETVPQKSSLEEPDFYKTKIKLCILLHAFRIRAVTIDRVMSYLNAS
T2 sequence (looked up) 2: T1 sequence (looked up) 2

B1: P23IL81A12v4 (VHH)
VHH: EVQLLESGGGLVQPGGSLRLSCAASGRTLSSYAMGWFRQAPGKGREFVSRISQGGTAIYYADSVKGRFTISRDNSKNTLYLQMNSLRPEDTAVYYCAKDPSPYYRGSAYLLSGSYDSWGQGTLVTVSS
notes: Final humanization variant of 81A12
B2: P23IL3C1 (VHH)
VHH: EVQLVESGGGSVQAGGSLRLSCKVSGIMFSDKGMGWFRQAPGKERETVAATNWSGGSTYYADSVKGRFTISRDNYKNTLHLQMASLKPEDTGIYYCAAAGDSWNSRRIEDYDYWGQGTPVTVSS
notes: p40+ Nanobody
B3: P23IL3B8 (VHH)
VHH: EVQLVESGGGLVQPGGSLRLSCAASGFTFSSSVMFWLRQAPGKGLEWLSTIKPTGSTIYPGSGKGRFTISRDNAKNTLYLQINNLKPEDTALYYCARDIGGTVRGQGTQVTVSS
notes: p40+ Nanobody; c-myc, His6-tagged
B4: P23IL-23E3 (VHH)
VHH: EVQLVESGGELVQAGGSLRLSCAASGSIVSISAMAWYRQAPGKQRERVATITRGGTPDYADSAKDRFTISRDNAKNTVSLQMNNLKPEDTAVYYCKAALRTPTHDYNYYDYWGQGTQVTVSS
notes: p40+ Nanobody
B5: P23IL-22D7 (VHH)
VHH: EVQLVESGGGLVQAGGSLRLSCASSGRTFSIYARGWFRQAPGKEREFVAAIRSGLTTYSDSVKGRFTISRDIAKNTVFLQMNSLKSEDTAVYYCAAAVNYFTDFTDYSKRDSYDYWGQGTQVTVSS
notes: p40+ Nanobody
B6: P23IL-23H3 (VHH)
VHH: EVQLVESGGGLVQAGDSLRLSCAASGRSFSNDAMGWFRQAPGKERSFVAAINWSGELTGYAGSVKGRFTISRDGVENMVFLQMNSLVPEDTGVYYCAAVEGRDYYRGAQYYDYWGQGTQVTVSS
notes: p40+ Nanobody
B7: P23IL3G10 (VHH)
VHH: EVQLVESGGGVVQAGESLRLSCAASGYNVKDYEMGWFRQAPGMEREFAAAISWRGSSTYYADSVKGRFTISRDNAKNTVYLQMSSLKPEDTAVYYCAAGRLYPSSRSRDYDYWGQGTQVTVSS
notes: as for B3
B8: P23IL-22E11 (VHH)
VHH: EVQLVESGGGLVQAGGSLRLSCAASGRTFSWSAVGWFRQAPGKEREFVAAIRWSGGSPYYADSVKDRFTISRDNAKNTVYLQMNSLRPEDTAVYLCGETSLFPTSRGSHYDTWGQGTQVTVSS
B9: P23IL-121A2-9GS-81G2 (bispecific antibody)
chain: EVQLVESGGGLVQAGGSLRLSCAASGSIFNFNYMGWFRQAPGKEREFVAAIRWSGSSTYYADSVKGRFTISRDDAKNTVALQMNSLKPEDTAIYYCALRKGIPYSTSDRVIKGVNDYDYWGQGTQVTVSSGGGGSGGGSEVQLVESGGGLVQPGGSLRLSCIASGLPFSTKSMGWFRQAPGKEREFVARISPGGTSRYYGDFVKGRFAISRDNAKNTTWLQMNSLKAEDTAVYYCASGERSTYIGSNYYRTNEYDYWGTGTQVTVSS
B10: P23IL119A3-9GS-81G2 (bispecific antibody)
chain: EVQLVESGGGLVQAGGSLRLSCAASGRIFSLPASGNIFNLLTIAWHRQAPGMQRELVATINSGSRTNYADSVKGRFTISRDNAQKTVYLQMNNLKPEDTAVYYCQTSGSGSPNFWGQGTQVTVSSGGGGSGGGSEVQLVESGGGLVQPGGSLRLSCIASGLPFSTKSMGWFRQAPGKEREFVARISPGGTSRYYGDFVKGRFAISRDNAKNTTWLQMNSLKAEDTAVYYCASGERSTYIGSNYYRTNEYDYWGTGTQVTVSS
B11: P23IL119A3-35GS-81A12 (bispecific antibody)
chain: EVQLVESGGGLVQAGGSLRLSCAASGRIFSLPASGNIFNLLTIAWHRQAPGMQRELVATINSGSRTNYADSVKGRFTISRDNAQKTVYLQMNNLKPEDTAVYYCQTSGSGSPNFWGQGTQVTVSSGGGGSGGGGSGGGGSGGGGSGGGGSGGGGSGGGGSEVQLVESGGGLVQAGGSLRLSCAASGRTLSSYAMGWFRQAPGKEREFVARISQGGTAIYYADSVKGRFTISRDNAKNTVYLQMNSLKPEDTAVYYCAKDPSPYYRGSAYLLSGSYDSWGQGTQVTVSS
B12: P23IL 84G12 (VHH)
VHH: EVQLVESGGRLVQAGGSLRLSCAASGRTFDSNPMGWFRQAPGKKREFVAIISGNGGITNYANSVKGRFTISRDNAKNTIYLQMNSLKPEDTAVYYCAASGLYGSGSVYDLMYDYWGQGTQVTVSS
notes: also called P23ILp40-PMP84G12
B13: P23IL81E10 (VHH)
VHH: EVQLVESGGGLVQAGGSLRLSCVASGRTFNTYGMGWFRQAPGKEREFVAANNWSGGATSYADSVKGRFTISRDNAKNTVFLQMNTLKPEDTAVYYCAAADRGGGWLVVRENDYDYWGQGTQVTVSS
notes: p40+ Nanobody
B14: P23IL 3F11 (VHH)
VHH: EVQLVESGGGLVQAGGSLRLSCAASGSIFSINAMGWFRQAPGKERQFVAAINWSTGSTYYSDSVKGRFTISRDNAKNTVYLQMNSLKPEDTAVYFCASGYLFPSSRGSQYDYWGQGTQVTVSS
notes: as for B3
B15: P23IL 84A12 (VHH)
VHH: EVQLVESGGGVVQAGESLRLSCAASGRSFSDYEMGWFRQAPGTEREFVASINRRGSSTFYADSVKGRFTISRDNTKNTVYLQMSSLKPEDTAVYLCAAGWLFPSSRSRDYDYWGQGTQVTVSS
notes: as for B3
B16: P23IL 21C4 (VHH)
VHH: EVQLVESGGGLVQAGGSLRLSCAASGRTFSGYDMGWFRQAPGKEREFVAQISRHNSNTYYADAVKGRFTISRDNAKNTVSLQMNSLKPEDTAVYYCAIGSLFPSSRERDYDYWGQGTQVTVSS
notes: as for B3
B17: P23IL 20F2 (VHH)
VHH: EVQLVESGGGLVQPGGSLRLSCAASGFSLDYTAIGWFRQAPGKEREVVSCFTSVPGSTYHADSVKGRFTIASDNAKNTVYLQMNDLKPEDTAVYYCATDAQTYYSGSYCGRTPQEYPYWGQGTQVTVSS
notes: p40- Nanobody

The Kd is the equilibrium constant for the complex coming apart. As a reminder, the koff is the first-order rate constant of dissociation. By kon is commonly meant the rate constant with which the complex forms. What is called IC50 is the concentration that gives 50% inhibition.

The first experiment has as its target T1, recombinant human IL-23 (p19/p40). As to the kind of experiment: SPR Biacore, hIL-23.
For B1, the Kd was found to be 0.33 nM, the koff was 0.0002 s⁻¹ and the kon was 600000 M⁻¹ s⁻¹.

Another experiment has the same target. As to the kind of experiment: cell-based or functional assay.
With B2, the “IC50, mouse splenocyte assay (mIL-22); nc = blocking not complete” value came out at 0.51 nM.
In the case of B3, the “IC50, mouse splenocyte assay (mIL-22)” value was 0.408 nM.
As to B4, the “IC50, mouse splenocyte assay (mIL-22)” value amounted to 0.935 nM.
On the same count and under the same terms, with B5 the figure was 0.116 nM; with B6, 0.79 nM; with B7, 2.33 nM.
Take B8: the “IC50, mouse splenocyte assay (mIL-22)” value came out at 0.186 nM.

The next experiment has as its target cynomolgus IL-23 (cynomolgus). As to the kind of experiment: cell-based or functional assay.
Regarding B2, the “IC50, mouse splenocyte assay (mIL-22); nc = blocking not complete” value came to 0.517 nM.
For the molecule B3, the “IC50, mouse splenocyte assay (mIL-22)” value came to 1.79 nM.
Still for that read-out and setting: as for B4, the figure is 5.46 nM; as for B5, 0.705 nM.
Consider B6, for which the “IC50, mouse splenocyte assay (mIL-22)” value came to 32.5 nM.
Same read-out and setting: as for B7, the figure is 9.45 nM; as for B8, 1.27 nM.

In the next experiment the target is T2, recombinant human IL-12. As to the kind of experiment: cell-based or functional assay.
For the molecule B3, the “IC50, PHA blast proliferation, 1 pM hIL-12; nc = no complete blocking” value is 1500 pM.
For B4, the “IC50, PHA blast proliferation, 1 pM hIL-12; nc = no complete blocking” value amounted to 1730 pM.
Consider B5, for which the “IC50, PHA blast proliferation, 1 pM hIL-12” value is 116 pM.
For B6, the “IC50, PHA blast proliferation, 1 pM hIL-12” value turned out to be 174 pM.
Same read-out and setting: as for B7, the figure is 194 pM.
Same read-out and setting: with B8 the figure was 159 pM.

The target in another experiment is T1, recombinant human IL-23 (p19/p40). As to the kind of experiment: cell-based or functional assay. The source holds these as a separate data set.
For the molecule B9, the “IC50, splenocyte assay, 19 pM hIL-23” value was 740 pM.
For B10, the “IC50, splenocyte assay, 19 pM hIL-23” value came to 1990 pM.

Another experiment shares this target. Kind of experiment: cell-based or functional assay. The source holds these as a separate data set.
For the molecule B11, the “IC50, splenocyte assay, 19 pM hIL-23” value was 7 pM.

Another experiment deals with cynomolgus IL-23 (cynomolgus). Kind of experiment: cell-based or functional assay. The source holds these as a separate data set.
As to B11, the “IC50, splenocyte assay, 3.8 pM cIL-23” value was found to be 5 pM.

The next experiment addresses T1, recombinant human IL-23 (p19/p40). Kind of experiment: SPR Biacore, hIL-23 on chip. (In general: In SPR one partner is held on a chip, and binding of the other changes the refractive index at the surface.)
Protocol: (§1) Nanobody binding was assessed at one concentration (100 nM). Each Nanobody was injected for 4 minutes at a flow rate of 45 μl/min to allow binding to chip-bound antigen. Next, binding buffer without Nanobody was sent over the chip at the same flow rate to allow spontaneous dissociation of bound Nanobody.
For B12, the koff was determined as 0.00029 s⁻¹.
On to B13, for which the koff came out at 0.00263 s⁻¹.
Still for that read-out and setting: as for B2, the figure is 0.000294 s⁻¹; as for B3, 0.0035 s⁻¹.
The same measure, in the same setting: as for B14, the figure is 0.00146 s⁻¹.
On to B15, for which the koff is 0.0016 s⁻¹.
As for B4, the koff was 0.00018 s⁻¹.
Still for that read-out and setting: as for B5, the figure is 0.00017 s⁻¹.
Regarding B6, the koff is 0.0011 s⁻¹.
As for B7, the koff turned out to be 0.00197 s⁻¹.
As to B16, the koff was 0.00051 s⁻¹.
The same measure, in the same setting: with B8 the figure was 0.00023 s⁻¹.

A further experiment has the same target. Kind of experiment: SPR Biacore, hIL-23 on chip. This is another data set of the same source.
Protocol: as §1
As for B17, the koff amounted to 0.00054 s⁻¹.

The next experiment addresses T3, cynomolgus IL-23 (cynomolgus).
T3 construct: also called cyno IL-23; cIL-23
As to the kind of experiment: SPR Biacore, cyno IL-23 on chip.
B12 gave a koff of 7e-05 s⁻¹.
For B13, the koff was 0.00132 s⁻¹ and 0.0012 s⁻¹.
The molecule B2 gave a koff of 5.9e-05 s⁻¹.
Still for that read-out and setting: as for B4, the figure is 0.0012 s⁻¹ and 0.0025 s⁻¹; as for B5, 0.00023 s⁻¹; as for B6, 0.00067 s⁻¹.
For B7, the koff is 0.002 s⁻¹ and 0.004 s⁻¹.
On to B8, for which the koff came to 0.00023 s⁻¹.

The next experiment concerns the target T2, recombinant human IL-12. As to the kind of experiment: alpha-screen, hIL-12/IL12Rbeta1-Fc.
Protocol: Human IL-23R-Fc chimera and hIL12Rbeta1-Fc chimera (R&D Systems, Minneapolis, Minn., US) were coupled to acceptor beads according to manufacturer instructions (Perkin Elmer, Waltham, Mass., US).
To this mixture, the IL12Rbeta1 acceptor beads and the streptavidin donor beads were added and further incubated for 1 hour at RT.
For the molecule B13, the IC50 came to 23 nM.
As for B2, the IC50 came out at 1 nM.
The same measure, in the same setting: as for B3, the figure is 0.35 nM; as for B15, 0.96 nM.
Same read-out and setting: as for B4, the figure is 1.2 nM; as for B5, 1.9 nM.
Take B6: the IC50 is 1.2 nM.
Take B7: the IC50 was 0.9 nM.
For B16, the IC50 worked out at 1.63 nM.
In the case of B8, the IC50 was 1.3 nM.
